In patent EP4442276A1 (INSTITUT PASTEUR, dated 2024):

Target: Spike of SARS-CoV-2 reference D614G strain (hCoV-19/France/GE1973/2020) (SARS-CoV-2, UniProt P0DTC2 14-1273)
Test: cell-based or functional assay

B1: Cv2.3132 IgG antibody (antibody, V domains shown)
VH: EVQLVESGGGLVKPGGSLRLSCAASGFTFSDYYMSWIRQAPGKGLEWVSYISSSGSVQYYADSVKGRFTISRDNAKNSLYLQMNSLRAEDTAVYYCARYYYDSSGYWKRLDYWGQGTLVTVSS
VL: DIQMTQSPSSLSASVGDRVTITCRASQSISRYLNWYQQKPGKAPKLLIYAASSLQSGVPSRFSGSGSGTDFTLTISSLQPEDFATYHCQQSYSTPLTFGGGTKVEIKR
notes: also called anti-HR2 antibody Cv2.3132
IC50, S-Fuse neutralization assay: 35.4 µg/mL
